These results are taken from paper PMC9911869.

This assay has as its target recombinant pullulanase from Manihot esculenta Crantz (rMePUL), mature form without the transit peptide (Manihot esculenta Crantz (cassava)). Put plainly: SEC; purified rMePUL on an MAbPac SEC-1 column (4 x 300 mm), 25 mM phosphate buffer pH 6.8 with 300 mM NaCl, 0.2 mL/min, 30°C, A280; calibrated with Bio-Rad gel filtration standards; monomer and dimer peaks.

“recombinant pullulanase from Manihot esculenta Crantz (rMePUL), mature form without the transit peptide (enzyme)”: the stoichiometry N (usually a count of units in the complex or per binding partner) amounted to 2.
